Laboratory results from the supplement of paper PMC9233669.
Fewer inactive variants are shown than the library holds.

Experiments:
biotinyl-Trp-oxazolone = test: self-aminoacylation, catalytic enhancement (BWO) (fold over background); higher = more active; k-Seq, kA / k0A0; sequences stand for … in GGGAAUGGAUCCACAUCUACGAAUUC…UUCACUGCAGACUUGACGAAGCUG
Outline: (§1)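 Mutagenized RNA pools with a 21-nt variable region (0.43 μM) were reacted with each biotinyl-aminoacyl-oxazolone at 2–1250 μM for 90 minutes at room temperature, in 50 μL HEPES/NaCl/KCl/MgCl2/CaCl2 buffer containing 5% acetonitrile at pH 6.9–7.0. RNA captured on streptavidin was quantified by triplicate qPCR and by Illumina sequencing. The fraction reacted for each sequence was fit to a pseudo-first-order model with bootstrapping, and catalytic enhancement is the median kA divided by the uncatalyzed rate, taken as the low-activity peak of a bimodal Gaussian fit.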

biotinyl-Phe-oxazolone = test: self-aminoacylation, catalytic enhancement (BFO) (fold over background); higher = more active; k-Seq, kA / k0A0; sequences stand for … in GGGAAUGGAUCCACAUCUACGAAUUC…UUCACUGCAGACUUGACGAAGCUG
Outline: as §1

biotinyl-Leu-oxazolone = test: self-aminoacylation, catalytic enhancement (BLO) (fold over background); higher = more active; k-Seq, kA / k0A0; sequences stand for … in GGGAAUGGAUCCACAUCUACGAAUUC…UUCACUGCAGACUUGACGAAGCUG
Outline: as §1

biotinyl-Val-oxazolone = test: self-aminoacylation, catalytic enhancement (BVO) (fold over background); higher = more active; k-Seq, kA / k0A0; sequences stand for … in GGGAAUGGAUCCACAUCUACGAAUUC…UUCACUGCAGACUUGACGAAGCUG
Outline: as §1

biotinyl-Ile-oxazolone = test: self-aminoacylation, catalytic enhancement (BIO) (fold over background); higher = more active; k-Seq, kA / k0A0; sequences stand for … in GGGAAUGGAUCCACAUCUACGAAUUC…UUCACUGCAGACUUGACGAAGCUG
Outline: as §1

biotinyl-Met-oxazolone = test: self-aminoacylation, catalytic enhancement (BMO) (fold over background); higher = more active; k-Seq, kA / k0A0; sequences stand for … in GGGAAUGGAUCCACAUCUACGAAUUC…UUCACUGCAGACUUGACGAAGCUG
Outline: as §1

Row | Sequence | self-aminoacylation (biotinyl-Trp-oxazolone) | self-aminoacylation (biotinyl-Phe-oxazolone) | self-aminoacylation (biotinyl-Leu-oxazolone) | self-aminoacylation (biotinyl-Val-oxazolone) | self-aminoacylation (biotinyl-Ile-oxazolone) | self-aminoacylation (biotinyl-Met-oxazolone)
1 | AAUCACCUAGGUCAUCGGUUG [Fam2.2 aminoacylation ribozyme variant] | 1.69 | 5.05 | 1.66 | 1.29 | 1.44 | 1.74
2 | CCACACUUCAAGGAAUUGGUC [Fam1B.1 aminoacylation ribozyme variant] | 0.823 | 0.734 | 1.03 | 0.726 | 0.901 | 0.755
3 | CCACGCGUCAAGCAAUCGGUC [Fam1B.1 aminoacylation ribozyme variant] | 0.802 | 0.748 | 0.71 | 1.2 | 0.827 | 0.841
4 | AUUACCCUCGUCUUCGAGUGA [Fam2.1 aminoacylation ribozyme variant] | 7.17 | 29.4 | 5.17 | 3.24 | 2.8 | 5.15
5 | AAGUUUGCUAACAGUCGCGAG [Fam3.1 aminoacylation ribozyme variant] | 2.46 | 1.64 | 1.24 | 1.12 | 1.02 | 0.591
6 | CCACACUUCAAGAAAUCGCUC [Fam1B.1 aminoacylation ribozyme variant] | 0.881 | 0.492 | 0.886 | 1.05 | 1.13 | 1.14
7 | AUGGACCUAGGUCAUCGGGUG [Fam2.2 aminoacylation ribozyme variant] | 4.36 | 22 | 4.55 | 3.04 | 3.46 | 3.77
8 | AUUACCCUGCUCAUAGAGUGA [Fam2.1 aminoacylation ribozyme variant] | 10.7 | 57.5 | 8.96 | 4.28 | 3.87 | 9.74
9 | CAACUUCCAACAAUCGGUCUG [Fam1A.1 aminoacylation ribozyme variant] | 1.14 | 1.69 | 0.985 | 0.929 | 1.13 | 1.15
10 | AAGAUUACUAAUAGUCGCAAG [Fam3.1 aminoacylation ribozyme variant] | 1.92 | 2.29 | 1.44 | 1.41 | 1.6 | 1.77
11 | CUACUUCAAAGAUUCGGUCUG [Fam1A.1 aminoacylation ribozyme variant] | 0.679 | 0.503 | 0.97 | 1.08 | 1.01 | 1.09
12 | AUUCACCUAGUUGAUCGGGUG [Fam2.2 aminoacylation ribozyme variant] | 4.26 | 23.9 | 4.3 | 2.79 | 2.5 | 3.66
13 | AAUACCCUGGACAUCGAGUGA [Fam2.1 aminoacylation ribozyme variant] | 5.44 | 10.5 | 4.14 | 2.25 | 2.25 | 3.95
14 | AUUCGCCUAGGUCAUCCGGUG [Fam2.2 aminoacylation ribozyme variant] | 10.3 | 78.7 | 10.9 | 6.7 | 6.5 | 7.99
15 | CUACUUCAAACAAUAGGUCAG [Fam1A.1 aminoacylation ribozyme variant] | 0.568 | 1.19 | 0.577 | 0.812 | 0.688 | 0.602
16 | CCUCACAUCAAGCAAUCGGUC [Fam1B.1 aminoacylation ribozyme variant] | 1.05 | 1.77 | 0.726 | 0.973 | 0.87 | 0.749
17 | AUUACCCUGGUCAUCGCGAGA [Fam2.1 aminoacylation ribozyme variant] | 2.72 | 1.58 | 1.44 | 2.21 | 2.17 | 1.68
18 | AUUCACCUAGGUCAUCAGGAG [Fam2.2 aminoacylation ribozyme variant] | 0.779 | 0.931 | 1.01 | 1.09 | 0.957 | 0.951
19 | AUGACCCUGGUCAUCGAGUUA [Fam2.1 aminoacylation ribozyme variant] | 3.71 | 9.13 | 5.29 | 2.44 | 2.81 | 6.25
20 | ACGUUUGGUAAUAGUCGCAAG [Fam3.1 aminoacylation ribozyme variant] | 2.45 | 2.95 | 2.1 | 1.55 | 1.75 | 1.54
21 | AUUUCCCUGGUCAUCGAGUGC [Fam2.1 aminoacylation ribozyme variant] | 1.21 | 2.11 | 1.59 | 1.08 | 1.1 | 1.86
22 | AUUCACCCAGGUCACCGGGUG [Fam2.2 aminoacylation ribozyme variant] | 4.89 | 39.4 | 5.75 | 3.77 | 3.47 | 5.66
23 | AUUCACAUCGGUCAUCGGGUG [Fam2.2 aminoacylation ribozyme variant] | 5.93 | 57.5 | 9.09 | 4.81 | 4.36 | 8.09
24 | CCACACUUCAAGCUAUCGGAC [Fam1B.1 aminoacylation ribozyme variant] | 0.582 | 0.941 | 0.681 | 1.01 | 0.982 | 0.654
25 | AUUCAUCUAGGUCAUCGGGCG [Fam2.2 aminoacylation ribozyme variant] | 2.66 | 14.7 | 3.27 | 2.71 | 2.58 | 3.33
26 | AUUUGCCUGGUCAUCGAGUGA [Fam2.1 aminoacylation ribozyme variant] | 9.16 | 13.1 | 8.2 | 4.54 | 4.47 | 8

Row | Sequence | self-aminoacylation (biotinyl-Trp-oxazolone) | self-aminoacylation (biotinyl-Phe-oxazolone) | self-aminoacylation (biotinyl-Leu-oxazolone) | self-aminoacylation (biotinyl-Val-oxazolone) | self-aminoacylation (biotinyl-Ile-oxazolone) | self-aminoacylation (biotinyl-Met-oxazolone)
27 | AUUCGGCUAGGUCAUCGGGUG [Fam2.2 aminoacylation ribozyme variant] | 4.77 | 24.4 | 4.58 | 3.7 | 3.06 | 3.87
28 | CGACUUCAAACAAUCGGUAUG [Fam1A.1 aminoacylation ribozyme variant] | 5.6 | 10.8 | 1.3 | 1.28 | 1.09 | 1.16
29 | AUUACACUGGUAAUCGAGUGA [Fam2.1 aminoacylation ribozyme variant] | 8.34 | 30.4 | 8.16 | 3.38 | 4.09 | 7.53
30 | UUUCAGCUAGGUCAUCGGGUG [Fam2.2 aminoacylation ribozyme variant] | 7.4 | 39 | 6.61 | 6.04 | 4.98 | 5.9
31 | AAGGUUGCUAAUGGUCGCAAG [Fam3.1 aminoacylation ribozyme variant] | 0.994 | 1.68 | 0.828 | 1 | 1.06 | 0.949
32 | CUUACCCUGGUCAUCGAGUUA [Fam2.1 aminoacylation ribozyme variant] | 2.08 | 4.79 | 2.36 | 1.73 | 1.53 | 2.5
33 | CUACUUCAAAGGAUCGGUCUG [Fam1A.1 aminoacylation ribozyme variant] | 0.738 | 0.753 | 0.912 | 0.902 | 0.925 | 1.04
34 | AAUUUUGCUAAUAGUCGCAAU [Fam3.1 aminoacylation ribozyme variant] | 2.09 | 2.09 | 2.91 | 2.13 | 2.95 | 2.88
35 | CAGCACUUCAAGCAAUCGGUC [Fam1B.1 aminoacylation ribozyme variant] | 22.1 | 34.4 | 2.33 | 1.55 | 1.67 | 1.79
36 | AUUCACCUAGUGCAUCGGGUG [Fam2.2 aminoacylation ribozyme variant] | 1.17 | 5.22 | 2.12 | 1.63 | 1.35 | 1.62
37 | AGUCACCUAGGUCAUCGGGUG [Fam2.2 aminoacylation ribozyme variant] | 7.24 | 38.1 | 6.74 | 4.99 | 4.81 | 6.24
38 | AAGUUUGGUAAUAGGCGCAAG [Fam3.1 aminoacylation ribozyme variant] | 0.712 | 0.618 | 0.761 | 0.775 | 0.692 | 0.705
39 | GUUCACCUAGCUCAUCGGGUG [Fam2.2 aminoacylation ribozyme variant] | 2.86 | 1.08 | 2.06 | 1.91 | 1.55 | 1.64
40 | AUUCACCUAGGUCAUCAGGGG [Fam2.2 aminoacylation ribozyme variant] | 0.985 | 0.986 | 1.32 | 1.22 | 1.22 | 0.955
41 | AUUCACAUACGUCAUCGGGUG [Fam2.2 aminoacylation ribozyme variant] | 6.74 | 53.4 | 9.26 | 4.19 | 4.62 | 7.22
42 | CCUCACUUCGAGCAAUCGGUC [Fam1B.1 aminoacylation ribozyme variant] | 1.16 | 2.23 | 1.04 | 1.04 | 1.08 | 0.881
43 | GCACACUUCACGCAAUCGGUC [Fam1B.1 aminoacylation ribozyme variant] | 3.02 | 10.1 | 1.93 | 2.22 | 2.5 | 2
44 | AUUCUCCUAGGUCAACGGGUG [Fam2.2 aminoacylation ribozyme variant] | 5.38 | 46.7 | 8.2 | 3.61 | 3.79 | 6.57
45 | ACUAACCUAGGUCAUCGGGUG [Fam2.2 aminoacylation ribozyme variant] | 6.91 | 40.7 | 8.64 | 3.36 | 5.7 | 6.8
46 | CUACUUCAAACAAUGCGUCUG [Fam1A.1 aminoacylation ribozyme variant] | 0.738 | 0.887 | 0.975 | 0.887 | 1.17 | 1.09
47 | CCACACUUCAAGCAUUGGGUC [Fam1B.1 aminoacylation ribozyme variant] | 0.956 | 0.918 | 0.83 | 1.4 | 1.04 | 1.03
48 | AUUACCCUAGUCAUCCAGUGA [Fam2.1 aminoacylation ribozyme variant] | 3.28 | 3.4 | 2.86 | 1.94 | 1.91 | 2.29
49 | CUACUUCAAACAAUCGGUUGG [Fam1A.1 aminoacylation ribozyme variant] | 1.82 | 3.55 | 0.788 | 0.812 | 0.843 | 0.619
50 | AUGCACCUAGGACAUCGGGUG [Fam2.2 aminoacylation ribozyme variant] | 5.58 | 19.4 | 4.43 | 2.54 | 3.37 | 3.57
51 | AUUCGCCUAGGUCUUCGGGUG [Fam2.2 aminoacylation ribozyme variant] | 9 | 55.9 | 8.57 | 5.82 | 5.33 | 7.49
